Source: US20020061552A1 (published 2002)

T1: Myc-tagged mNkd protein, in vitro translated (mouse, UniProt Q99MH6 1-471, labelled with 35S-methionine)
T1 construct: Made with the TNT coupled reticulocyte lysate system in the presence of 35S-methionine; also called Myc-mNkd; 35S-mNkd; not shown: Myc tag
T1 sequence: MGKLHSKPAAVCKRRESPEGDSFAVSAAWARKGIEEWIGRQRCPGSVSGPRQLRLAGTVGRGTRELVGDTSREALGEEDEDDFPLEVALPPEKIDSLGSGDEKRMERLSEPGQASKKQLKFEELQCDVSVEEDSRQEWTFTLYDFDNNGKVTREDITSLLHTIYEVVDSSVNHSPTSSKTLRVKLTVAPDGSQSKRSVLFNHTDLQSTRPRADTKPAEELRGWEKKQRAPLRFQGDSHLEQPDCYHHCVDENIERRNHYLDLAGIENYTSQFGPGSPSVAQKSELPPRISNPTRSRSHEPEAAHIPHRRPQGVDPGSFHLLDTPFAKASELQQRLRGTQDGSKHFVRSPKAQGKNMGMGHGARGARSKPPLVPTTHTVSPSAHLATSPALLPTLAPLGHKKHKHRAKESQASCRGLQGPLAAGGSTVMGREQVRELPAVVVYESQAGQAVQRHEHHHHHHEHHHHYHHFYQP

B1: GST fusion of the PDZ domain of Drosophila Dvl (other, UniProt P51140 252-324, looked up)
chain: TVSINMEAVNFLGISIVGQSNRGGDGGIYVGSIMKGGAVALDGRIEPGDMILQVNDVNFENMTNDEAVRVLRE
notes: domain: PDZ; also called PDZ domain alone; not shown: glutathione-S-transferase (GST)

Key:
[1] = target: endogenous Dvl of HEK293 cells; test: cell-based or functional assay
[2] = target: T1, Myc-tagged mNkd protein, in vitro …; test: GST pull-down, electrophoresis and autoradiography
Text: The immunocomplexes were subjected to electrophoresis and autoradiography.

| Molecule | inhibition of the activation of the LEF-1 luciferase reporter by Wnt in HEK 293 cells [1] [%] | binding result [2] |
| --- | --- | --- |
| Xpress tagged mNkd (from UniProt Q99MH6 1-471) | 75 | – |
| B1 | – | no binding |
